How the values were obtained:
[1] = target: Crotalus durissus terrificus (C.d.t.) venom; assay: ELISA, C.d.t. venom coat, 1:25
[2] = target: Crotalus durissus terrificus (C.d.t.) venom; assay: ELISA, C.d.t. venom coat, 1:3125
[3] = target: Crotalus durissus terrificus (C.d.t.) venom; assay: ELISA, C.d.t. venom coat, 1:625
[4] = target: Crotalus durissus terrificus (C.d.t.) venom; assay: ELISA, C.d.t. venom coat, 1:625; remark: listed apart in the source
[5] = target: Crotalus durissus terrificus (C.d.t.) venom; assay: ELISA, C.d.t. venom coat, 1:5
[6] = target: Crotalus durissus terrificus (C.d.t.) venom; assay: ELISA, C.d.t. venom coat, undiluted
[7] = target: Crotalus durissus terrificus (C.d.t.) venom; assay: ELISA, C.d.t. venom coat, 1:312,500
[8] = target: Crotalus durissus terrificus (C.d.t.) venom; assay: ELISA, C.d.t. venom coat, 1:25; remark: listed apart in the source
[9] = target: Crotalus durissus terrificus (C.d.t.) venom; assay: ELISA, C.d.t. venom coat, 1:3125; remark: listed apart in the source
[10] = target: Crotalus durissus terrificus (C.d.t.) venom; assay: ELISA, C.d.t. venom coat, 1:62,500
[11] = target: Crotalus durissus terrificus (C.d.t.) venom; assay: ELISA, C.d.t. venom coat, 1:125
[12] = target: Crotalus durissus terrificus (C.d.t.) venom; assay: ELISA, C.d.t. venom coat, 1:125; remark: listed apart in the source

## preimmune IgY (antibody)
[1]
  ELISA absorbance: 0 OD
[2]
  ELISA absorbance: < 0 OD
[3]
  ELISA absorbance: 0 OD
[4]
  ELISA absorbance: < 0 OD
[5]
  ELISA absorbance: < 0 OD
[6]
  ELISA absorbance: 0.003 OD
[7]
  ELISA absorbance: 0.01 OD
[8]
  ELISA absorbance: 0.016 OD
[9]
  ELISA absorbance: 0.002 OD
[10]
  ELISA absorbance: 0.001 OD
[11]
  ELISA absorbance: < 0 OD
[12]
  ELISA absorbance: 0.003 OD
